# According to US20240052047A1 (Pfizer, published 2024):
# T1: Human gp130 (human, UniProt P40189 23-619)
# T1 construct: Soluble analyte in SPR and antigen in ELISA/screens; also called huGP130
# T1 sequence: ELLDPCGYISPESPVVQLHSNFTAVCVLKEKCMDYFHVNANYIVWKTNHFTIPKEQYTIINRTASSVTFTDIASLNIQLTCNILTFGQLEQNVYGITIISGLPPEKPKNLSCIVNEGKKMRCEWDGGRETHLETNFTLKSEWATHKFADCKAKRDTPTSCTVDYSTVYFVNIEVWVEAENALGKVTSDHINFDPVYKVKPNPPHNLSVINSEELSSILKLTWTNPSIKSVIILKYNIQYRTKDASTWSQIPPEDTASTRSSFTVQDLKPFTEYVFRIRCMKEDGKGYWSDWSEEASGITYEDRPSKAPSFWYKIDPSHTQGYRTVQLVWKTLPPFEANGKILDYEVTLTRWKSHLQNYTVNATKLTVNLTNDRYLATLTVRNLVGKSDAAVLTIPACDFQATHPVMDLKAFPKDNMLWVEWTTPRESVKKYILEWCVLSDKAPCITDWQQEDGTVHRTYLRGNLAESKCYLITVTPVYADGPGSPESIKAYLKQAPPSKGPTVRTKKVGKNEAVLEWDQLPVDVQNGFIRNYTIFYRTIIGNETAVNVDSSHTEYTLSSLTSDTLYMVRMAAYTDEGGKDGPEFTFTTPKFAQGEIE
# T2: Cynomolgus monkey gp130 (cynomolgus monkey, UniProt P40189 23-619 (human entry), limits assumed)
# T2 construct: Soluble SPR analyte; also called Cyno GP130; cyGP130
# T2 chain: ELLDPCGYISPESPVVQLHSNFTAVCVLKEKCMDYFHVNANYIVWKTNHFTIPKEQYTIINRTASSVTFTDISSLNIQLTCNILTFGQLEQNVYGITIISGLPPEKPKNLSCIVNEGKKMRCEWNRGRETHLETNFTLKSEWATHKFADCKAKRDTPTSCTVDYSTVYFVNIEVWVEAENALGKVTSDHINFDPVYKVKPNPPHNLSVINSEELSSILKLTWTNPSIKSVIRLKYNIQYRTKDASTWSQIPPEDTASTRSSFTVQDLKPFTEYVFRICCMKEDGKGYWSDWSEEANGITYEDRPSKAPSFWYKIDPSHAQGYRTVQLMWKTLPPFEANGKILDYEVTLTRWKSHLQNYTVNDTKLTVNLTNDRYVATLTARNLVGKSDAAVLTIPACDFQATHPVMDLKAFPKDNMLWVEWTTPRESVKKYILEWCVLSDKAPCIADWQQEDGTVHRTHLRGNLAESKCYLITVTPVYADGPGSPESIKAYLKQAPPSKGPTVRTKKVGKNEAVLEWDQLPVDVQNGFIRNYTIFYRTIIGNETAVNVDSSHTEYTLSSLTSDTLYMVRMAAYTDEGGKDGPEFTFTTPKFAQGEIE
# T3: Cynomolgus monkey IL27RA (cynomolgus monkey)
# T3 construct: Soluble SPR analyte; also called Cyno IL27R; cyIL27R
# T3 chain: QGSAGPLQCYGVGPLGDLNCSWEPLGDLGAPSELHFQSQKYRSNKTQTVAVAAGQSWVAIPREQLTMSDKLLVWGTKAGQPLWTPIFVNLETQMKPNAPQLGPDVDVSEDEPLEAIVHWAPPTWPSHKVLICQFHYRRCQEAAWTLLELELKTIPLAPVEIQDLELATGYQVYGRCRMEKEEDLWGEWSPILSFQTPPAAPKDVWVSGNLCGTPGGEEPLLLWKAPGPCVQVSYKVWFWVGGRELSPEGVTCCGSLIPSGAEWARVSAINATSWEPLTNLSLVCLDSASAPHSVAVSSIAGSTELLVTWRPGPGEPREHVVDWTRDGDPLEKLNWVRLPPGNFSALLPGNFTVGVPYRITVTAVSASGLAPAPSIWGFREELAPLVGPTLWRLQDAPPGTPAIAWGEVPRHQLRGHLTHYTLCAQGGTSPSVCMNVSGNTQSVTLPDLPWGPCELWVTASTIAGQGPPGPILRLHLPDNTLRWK
# Columns and labels:
# Test in all cases: SPR Biacore 8K+, 37 C; mAb-4894 captured by anti-Fab, antigen as analyte; 1:1 Langmuir fit
# [1] = target: T1, Human gp130
# Method: (§1) The crossreactivity of mAb-4894 to human and cynomolgus monkey antigens, gp130 (human—SEQ ID NO: 45, cynomolgus—SEQ ID No: 46) and IL27RA (human—SEQ ID NO: 41, cynomolgus—SEQ ID No: 42), was measured by surface plasmon resonance by anti-FAB capture of mAb-4894 (containing arms of anti-IL27RA-4880 EE and anti-gp130-4875 RR) on a biacore chip. Human or cynomolgus monkey IL27RA or gp130 was flowed over the chip and on and off rates were determined, and the affinity constants calculated.
# (§2) Flow cell 1 for each channel was used as a reference flow cell. After antibody capture, three-fold dilution series of cytokines with concentrations ranging from 405 nM to 15 nM for huGP130 and cyGP130 and 45 nM to 1.67 nM for huIL27R and cyIL27R or HBS-EP+ buffer were injected over the sensor surface for 60 seconds at 50 μl/minute. The dissociation was monitored for 600 seconds and the surface was regenerated with 2 injections of 10 mM Glycine pH 1.7 at 30 μl/minute. The data was double referenced (Myszka, D., J. Mol. Recognit 1999; 279-284). Binding affinities and rate constants were determined for human and cyno GP130 and IL27R by fitting the resulting sensorgram data to a 1:1 Langmuir model in BIAcore Insight Evaluation software version 3.0.12.15655 (Cytiva).
# [2] = target: T2, Cynomolgus monkey gp130
# Method: as §1, §2
# [3] = target: T3, Cynomolgus monkey IL27RA
# Method: as §1, §2
binder,measurement,setting,value
"mAb-4894 anti-IL27RA/gp130 bispecific antibody (bispecific antibody, human IgG1, Human IgG1 EE/RR heterodimer with L234A, L235A, G237A (EU); also called GBT-IL27R-4894; GBT-IL-27R-4894) heavy 1: EVQLVESGGGLVQPGGSLRLSCAASGFTFEYFGLQWVRQAPGKGLEWIGYTSSGGNYEYYEETLKGRFTISRDNAKNSLYLQMNSLRAEDTAVYYCARTKTGDYWGQGTLVTVSSASTKGPSVFPLAPSSKSTSGGTAALGCLVKDYFPEPVTVSWNSGALTSGVHTFPAVLQSSGLYSLSSVVTVPSSSLGTQTYICNVNHKPSNTKVDKKVEPKSCEKTHTCPPCPAPEAAGAPSVFLFPPKPKDTLMISRTPEVTCVVVDVSHEDPEVKFNWYVDGVEVHNAKTKPREEQYNSTYRVVSVLTVLHQDWLNGKEYKCKVSNKALPAPIEKTISKAKGQPREPQVYTLPPSREEMTKNQVSLTCEVKGFYPSDIAVEWESNGQPENNYKTTPPVLDSDGSFFLYSKLTVDKSRWQQGNVFSCSVMHEALHNHYTQKSLSLSPGK light 1: DIQMTQSPSSLSASVGDRVTITCRASQDIGNSLTWYQQKPGKAPKRVIFGATGLAAGVPSRFSGSGSGTDFTLTISSLQPEDFATYYCLQSKQYPYTFGQGTKLEIKRTVAAPSVFIFPPSDEQLKSGTASVVCLLNNFYPREAKVQWKVDNALQSGNSQESVTEQDSKDSTYSLSSTLTLSKADYEKHKVYACEVTHQGLSSPVTKSFNRGEC heavy 2: QVQLVQSGAEVKKPGSSVKVSCKVSGGSISSYYWSWVRQAPGQGLEWIGRIYITGNTNYNPSLKDRVTMTVDTSTSTHYMELSSLRSEDTAVYYCAREGPKLGIFDYWGQGTLVTVSSASTKGPSVFPLAPSSKSTSGGTAALGCLVKDYFPEPVTVSWNSGALTSGVHTFPAVLQSSGLYSLSSVVTVPSSSLGTQTYICNVNHKPSNTKVDKKVEPKSCRKTHTCPPCPAPEAAGAPSVFLFPPKPKDTLMISRTPEVTCVVVDVSHEDPEVKFNWYVDGVEVHNAKTKPREEQYNSTYRVVSVLTVLHQDWLNGKEYKCKVSNKALPAPIEKTISKAKGQPREPQVYTLPPSREEMTKNQVSLTCLVKGFYPSDIAVEWESNGQPENNYKTTPPVLDSDGSFFLYSRLTVDKSRWQQGNVFSCSVMHEALHNHYTQKSLSLSPGK light 2: DIQMTQSPSSLSASVGDRVTITCRASQSVSSSYLAWYQQKPGKAPKLLIYGTESRATGVPSRFSGSGSGTDFTLTISSLQPEDFATYYCQQYGGYPTFGGGTKVEIKRTVAAPSVFIFPPSDEQLKSGTASVVCLLNNFYPREAKVQWKVDNALQSGNSQESVTEQDSKDSTYSLSSTLTLSKADYEKHKVYACEVTHQGLSSPVTKSFNRGEC",Kd,[1],170 nM
same,koff,[1],0.0566 s⁻¹
same,kon,[1],337000 M⁻¹ s⁻¹
same,Kd,[2],188 nM
same,koff,[2],0.0403 s⁻¹
same,kon,[2],215000 M⁻¹ s⁻¹
same,Kd,[3],1.68 nM
same,koff,[3],0.00195 s⁻¹
same,kon,[3],1.17e+06 M⁻¹ s⁻¹
